Measurements as given in patent US20150259384A1.

Assays:
[1] = target: Human Rb construct (residues 53-787, delta245-267, delta582-642, S780A), phosphorylated with recombinant Cdk (human) (UniProt P06400); test: isothermal titration calorimetry; E2F (~1 mM) titrated into ~50 uM phosphorylated Rb
[2] = target: Phosphorylated human Rb construct (residues 53-787, delta245-267, delta582-642, S780A) saturated with the … peptide (human) (UniProt P06400); test: isothermal titration calorimetry; E2F (~1 mM) titrated into ~50 uM phosphorylated Rb first saturated with the … peptide
[3] = target: Human Rb construct (residues 53-787, delta245-267, delta582-642, S780A), un-phosphorylated (human) (UniProt P06400); test: isothermal titration calorimetry; E2F (~1 mM) titrated into ~50 uM un-phosphorylated Rb
Chain of Human Rb construct (residues 53-787, delta245-267, delta582-642, S780A), un-phosphorylated (human) (P06400 other isoform, or with tags, fused parts or gaps S780A S780A limits assumed): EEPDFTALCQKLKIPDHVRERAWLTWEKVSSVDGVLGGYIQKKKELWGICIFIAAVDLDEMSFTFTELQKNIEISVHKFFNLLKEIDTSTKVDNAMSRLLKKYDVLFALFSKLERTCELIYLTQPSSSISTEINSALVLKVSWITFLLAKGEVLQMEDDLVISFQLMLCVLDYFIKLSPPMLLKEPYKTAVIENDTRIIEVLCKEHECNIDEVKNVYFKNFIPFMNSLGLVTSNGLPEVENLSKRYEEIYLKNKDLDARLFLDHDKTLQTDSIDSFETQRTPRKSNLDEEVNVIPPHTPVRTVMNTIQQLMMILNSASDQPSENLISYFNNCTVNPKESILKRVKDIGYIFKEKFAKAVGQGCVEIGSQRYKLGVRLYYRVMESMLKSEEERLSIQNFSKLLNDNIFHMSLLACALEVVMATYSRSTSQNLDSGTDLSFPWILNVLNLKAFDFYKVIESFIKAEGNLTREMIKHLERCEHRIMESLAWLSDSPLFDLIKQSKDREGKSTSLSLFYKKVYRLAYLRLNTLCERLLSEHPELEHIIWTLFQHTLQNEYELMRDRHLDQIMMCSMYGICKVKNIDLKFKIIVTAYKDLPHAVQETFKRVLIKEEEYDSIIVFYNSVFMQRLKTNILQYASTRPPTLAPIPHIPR

Chain of Human Rb construct (residues 53-787, delta245-267, delta582-642, S780A), phosphorylated with recombinant Cdk (human) (P06400 other isoform, or with tags, fused parts or gaps S780A S780A limits assumed): as above
Chain of Phosphorylated human Rb construct (residues 53-787, delta245-267, delta582-642, S780A) saturated with the … peptide (human) (P06400 other isoform, or with tags, fused parts or gaps S780A S780A limits assumed): as above

Human E2F1 transactivation domain (residues 380-727) (from UniProt Q01094 380-437)
Kd [1]: 3000 nM
Kd [2]: 700 nM
Kd [3]: 100 nM
